Data published in the NTF2 design screens of Basanta et al. (2020).

assay: protease stability score; higher = more stable; yeast display proteolysis, trypsin and chymotrypsin;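 note: relative to predicted unfolded state with 0 unfolded-like and 1 meaning tenfold more protease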

Row | Sequence | protease stability score
1 | DEEEEEILRVWEILIHLFVTGDEEKFSKMADPDYKWHQGDKSRIGRESMREHIKKFLEELRIKELHLHHTHVFDGRYEADVELRGHINGRESRIKSRIILEVYNGRVKLFIIDIR | 0.559
2 | DEEDELSEELSRFSLKTLRTGDEDLLSRNMDPHVRMDIDGQDLHGREHVIKFLKDWNRMFGIKHTELKHVRIQGNWIEIHARIQVGDKEMDLRIYAVKIDGRWLVHSIEVEKK | 0.182
3 | DEEERLVRKFSSVVKHIFKTGDWKRFTELADPDTLLIIIIGDKEIRHHGREEITHALREWFRILGIDHFHIRDERYQGDKVELDTEVRYNGQTHDFVIEVIVVDGRAKEFKIRFR | 1.67
4 | TEEEEELRRIEHLTIELIETGDEDTLKRLADPNARLNIEFNGVHIHSHGREEMARLLHEWYRTMGIKHEELKRSEIQGDKVILHTELRIGDKTVSTIIITLVINGRIKWIRIIIK | 1.36
5 | SEDTATAHLMVEYFTKSVHTGDEHTTKRQVDPTMRFDFNGKQIIGREKWKEDLLHWRMETTSHVDDFKLQGDKVRSRTTLHMILHFDGVVYHNTYDTEIIYHKVDGRWYFTEFHVR | 1.14
6 | DKENHLMRELTRLIVDYINTGDWKEFRKLADPHVRIVIEVGDKRIERHGMEDWLKLVRDRLEEIRTHIEVHDVEAQGDKAHLDGRIRLIVGEFEIVIESRIKVVSIDGKLKEISVHMV | 1.48
7 | TELEREVETFLEMWITAIHTGDWTTLIELIDPHARLDYDGREIHGMEYYVEEFIKRLQEHGARVDIKIDRIDFQGDKVRVIGQLEVIIGEKREVKDVIIYIEKVDGKWRLHHEEIV | 1.37
8 | REEEEEVKRNAHITVHILLTGDFHHHSRLFDPHVRSEWNGVELHGMEEDLKWWIELVKHLRFKHFEIHDIRVYDGVADNDINEVIKVNGKDFTFKSSIILIIINGQIRELKFVIN | 0.073
9 | DHREKELEKMARIFIHNLVTGDWRSLEKLADPDAKSEVIIGDKHIEHVGRHEVWKMLFEIRWEQVEVHDIRIYNGRVEIDGHMKGDIDGRRIETDTKIRLTIVNGVVQTFHMEIR | 2.23
10 | SEDEELSQKALEMVKHSSDTGDEKTTRQLMDPNYRMVIGDYELHGWELVVDFVRHARYDDLIMRRWDSQGDKIHLDGETIVNVGDKILHTRVRLIALKVNGQWKLNSVIFH | 0.149
11 | DHEEHYSRIAVQEVLHRMLTGDEESLVKLADPHTRMTIGDKELHGWELVFEFLRDWVHKFKNIRLHIHQHEVQGDKIHIEIRVLIDGKEQDVKIHAEKIDGKWIYRQSHFR | 0.751
12 | SEEEELHEILLHLLLLMHTTGDEHLLRRLADPNARVDINGREWHGRDLMVKFLVEIRIHRTRIHDERDIDGRVHMETRVDGLWNGVRYTFDTRIHAVKVNGRWLLESYSVE | 1.21
13 | DELEHRSQEAIEHIVHSMQTGNEEEIERNMDPNARIRVGNYHLHGRKEAVRWFNFFLTELRIHDIHIHDVKSQGEWIHIDGHIRGQINGQEHSVRTHIIVYKINGKWHDTSYHLS | 0.723
14 | DEETELTERAIEESKHNMETGDEDRLIELIDPNVKVEIGDKTFHGWEELMRWWHELGIKHVHLEFHDVKHFNGRIEVDGRLHIDVNGRTILLRVELYFQKINGQWFKESIHIK | 1.67
15 | DHLEELHETITKLWLEARRTGDEHLFRELMDPHVRIHIGDFEHHGREEALKAFDDIDRHLGVKHHHVDSWHVVNGQMIIDGRLHFDGQTRKVHIDLVIIDGRIEEIREEIR | 0.617
16 | DHEDDEFDFAIELWVTIMKTGDEEFLERYVDPHARLIVGDKRFHGREVIEFMLRRIDVLDRIEVEHRQSVNGRMIIHQHLHHAIDGRRNEVRMRVVVHKVDGRWDLDELQFD | 1.36
17 | DEINEDLERQARLFYHLWLTGDEEILEKLVDPHVRIILVFNGVPKQDHGREWLMKLFEEIRVEHFEIKTFEIQGEKAIMDTHEIIHVNGKRTRLRVHLWLTMVNGRIKTIEIRFV | 2.13
18 | DEDERDFRHYMELFQKAHETGDEDHFIKMMDPNARFLINGVHLHGWKEFVRLLEHIRMDVSDTRIRTVDSQGDKVRADTELIFRGKIDGREIDVTFETRIIIEKVDGRWHLREIRVH | 1.3
19 | SELEHQVRKFVEIYVEAMRTGDEDVLRELADPHVRVVIGDKELHGWEEVVHKLRELRLEEIRVDRVRVIGDYVYVDGHSVWTYGDKRIEQRDIFTIRKVNGRWVLHDVILR | 1.99
20 | SEDEETARRIVKELLHDRLTGNEDRIRELADPDVRLIIGEFHMHGMDNFLRVLRFIYHHWRIHDTQMETHEIQGDKAYNHTIIDGEFDGKRHEWQIHILVLKVNGRWRLKTLELH | 1.84
21 | DELHKFAEEFMKIFVHNFFTGDWRTMHELLDPHVRLDFNGVEHIGRENVLKFWEEIRRRYDHFHIEVKRVETQGEKAHSDVHLEFRINGQEEHRKQHWHLDVINGRIHSFFVEVE | 2.03
22 | SEEEELALKLLRVLWHHLETGDEETLNHLLDPDTRWNVDGVNFHGMRDFVRHFRERLKHARLHSLHVHRFSMINGVMHFDGEVNEIYGDKTERYRVRIELVVVNGRWKELYLHKI | 1.55
23 | DRIEEEFEFALRHLIHNWVTGDETRLQKLADPNVRTVFEGREHHGRESFTELVHEIRFHDFRLRDYKIQGNKIVVDGEFDVDINGVRRIIRVELEIIKINGRWYIHSISFL | 0.203
24 | SEVEERFKEEMHRQFENSETGNEDEVAKYFDPDARMHIDGKEIHGRDEVKRILSEWRLTHITLRDFRIVGNKIHTDAEVVIEIGDKKIRYRVHIIQYKVNGQWRVESFEVK | 0.88
25 | DESEKMFKEIWRLLIESHRTGDEDSLERLADPHARMDFNGVEHHGRRELVRILSEHYKRVDHIHLIIRDMDVQGNKVTMRGELVLEFNGRRQTHDVTIILSKVDGVWYLHSIIVR | 1.53

Row | Sequence | protease stability score
26 | DKEHKESTKATHDVLRSWKTGDERFREELADPNARMEFNGREHVGREFMSELLRHLWEELGVDHMELKRVIIQGDKIHIDMDLTVGDKSIHLHVTVQKINGKWIIKSIRLELT | -0.192
27 | DERTEHNRQLAEEITRALLTGDWHEIEKQADPHVKFRQGEFSYVGREDLVRFWEEFIKKIKNITLRIREIRVIGDKVHIHNDLKIGDKETHVHIILVLIDGRLHHLEIRIE | 1.45
28 | RETEEEIRHAHELLLEAEQTGDEHILHHMLDPNVRFQVGDKHIHGRENFMKQFRKLWEDFGVDHIEIRLKEMRVFENRVHVRGELIIRVGDKEMRTKHIEVSEKIDGKWLLHSVKFE | 1.14
29 | SEDEKENREWKRLLIEAHMTGDEHFLSRQLDPNVLVIVNGQEKVGREEAERELKEWLDKVKGLRIRRFDTESEEFVDGRLHSNLKLDGIINGRRTELDIHVISVKIDGQWQIRQIFFV | 1.44
30 | SEEEDDLQHYIDVLRHILHTGDWQKFSEMADPTVKLKINGVEYHGREKLAHMLKKHLEELGYTRIEVELRSITIQGEFIKSDIKLDVNGQELRVRVDFYKINGKWSMTFLQIE | 1.45
31 | DETEEDVREAIRKMLHSTRTGDEEDNKKLMDPNVQIDIDGVKYHGWETWVEHMRRVDHLRMKIHSIEVQGNKLIVDGELDQRFNGVQLRFRSELILVKIDGRWLVHSIHFK | 1.17
32 | DEIEEKIETHIKILLHASRTGDWELNSHNADPHTRIDIDGVELHGMEHFFTIMKEMRMKEYTLHHIEVQGEKIRIRGELRGEWDGKEEVVDVILIIVKIDGKWLIKEVRFR | 1.07
33 | NELEKHLREMTREMLEAWRTGDFDHLEHLADPHVRIETIYNGQREEFHGREWLIKAVERLDRLMGIDHIYFQEWTTIGDFVDVDLRTQVGDKRIRLHMELNVVNGRIKFHRIEVE | 1.24
34 | SENEKRMRELAEIILISWWTGDEDTLKDLADPRTRVNIDGVDLIGMELTSEFLERHLREMRIHSIELESITVIDGQAHIHLEVDTVVNGVRIRTKIHILVVTVDGRLKSEHYHRR | 0.446
35 | DEEKKDLERLYELLLRSMFTGDWRALEELMDPNVLLQVNGKELHGWKLMVRVMREIRIEDHEVKHIELQGDKIHMDTRTHGEFDGRTDTTKTHVLAKKVDGQWRLKHYKID | 0.932
36 | SEDQEEAEHVFEQWIRVLTTGDEETAHKMADPNTRMHFNGKDIHGMDTIAKEFHDLGITLQSIRMRHVERQGDKIHIHSRRTFEVNGVHLNTEVHHSLVKIDGRWTFQHTYVH | 0.086
37 | HEDEHLMKRVAELIFRLLVTGDEDRMRDLLDPTTRMDINGKEFHGRDQVIEVWRRLIDHIRIEEVHLEDHDIYGDKVRWHMRIRTRQGDKQLHLETRFTADKFNGRWELQTVIFK | 1.64
38 | SEQEERETRFMEKAWDLLRTGDEHLLERLADPNARLEIDGRKKHGRETIIEYFRHVKEHLGFKHIELHHMHLVDGVLHIDGIFRYGDKTHRTEIVYYVVNGRLERIEIIIL | 1.22
39 | DEDKEIAEHNLRLLSHSRLTGDEESMHKLMDPNAKIDFNGREIHGMEWIEWLKNQLRLKHVHTEFKDSRIINGRMEVDVNLRLHLSINGKEVDFIIDVELISQKVDGRWIVRSEIYR | 0.375
40 | SELDENVKRITDIFIHAILTGDEHKIRKLLDPHVRTVVDGVEYIGREWFAEWVKHMRIDDHRIKTIEIRNQGDYAHVHIHGRTLGEYDGKHSTVNMFIHMHFVKFDGKWFVHELNVHII | 2.06
41 | HEEEEKVERYTRMYWNHLLTGDEDILQELMDPHARSTEIYGDFRIENHGRKAQHWLLRRIDHITSLRIHDVQIVDGVALVDSESDYRIGDKEIRVRTELIVHVVNGKIKSVSISVR | 0.896
42 | DEHDKETKEMLERFLEATETGNEKHSEELFDPRTRMEFDGVEIHGRETITKILTELWERADHIQFVLHDLRLVDGRVELDMRIRLHYDGQEYRRRSKVLLWKIDGRWVIRSERYE | 1.99
43 | SEDEHDARLAIRLLLEALRTGDERIMEELLDPNVRFDINGKEFHGRKYVSEWLHRVDHIESRFELRDVHLFDGRIEVRGILRLHIDVNGKIDDQEKDIVLFVNKVDGRWIVHSWEIH | 1.33
44 | SEDEKASKEAFELWRRVDETGDEHSLLRLLDPHVRLHIGDKHLHGREEVKRLLEELGVSRVHFDLRTIRVINGKVFVHGDFEVGDKRTHSEIVALKVDGRWINESIHIR | 0.806
45 | DEEERDLQQFIEEWWKTLVTGDEHLIERYLDPHVRMDWNGRELHGREAIADTIKKYVDEIRLEVRINHVRFQGDKVDIDGEIVERQGDKTRHLNFELEIIVVNGRAQEIRVRLR | 1.48
46 | SDEDEISKHWVELLVEHIKTGDEDFLFKMFDPNVRVIIGDKIMHGRETLLDLIEKELKEAGITRFSMNLHHVDTQGDKAHSNMILDVNGVYRNVRVHFEKIDGKWHMHTWEER | 1.99
47 | DEEEELYRIALEESIRTLKTGDEDRVHELFDPRARIIVNGREFHGRERATKWAFDWIHKVKNMRFELRDFRIQGDKIIIHGKLHVNGQETEIIIIIHKIDGRWLIEQVEVR | 1.4
48 | DEEEKLIRIFDKLLSRAMKTGDEHELFKLIDPHTRMVVNGRTFIGWELFSHVVRHWRIDHIDLEDFKVQGDYAHLDGRVDQTVNGVKIETRSIIINEKFNGRWNNSSVILH | 0.163
49 | TEEDEELKRWFDHFLESMITGDEHQNTELFDPNVLIHINGRQLHGRESAKIFIKEIRYEEIEVTHVRKYGNYVISSGVVRVRINGQESTIKTEVIVLKVNGQWLIRFVRFE | 2.26
50 | DESEELSRIASHLFLRMMHTGNEEEISKLADPNTRLDVNGKHFHGMELIIHFLHELRRKLGVKYIRLKSVHITIVNGKVDLELEGDLLQGDFEIPSHIRNIALKVDGKWFIHRQEFRFE | 1.32
